# Reference: the supplement of paper PMC9170038
# System: MS2 coat protein
# Assay: apparent KD of MS2 coat protein; higher = weaker reporter binding
# Conditions: Eterna round: R107
# Outline: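 Apparent KD is reported per design as the median of normalised binding-curve fits across its clusters. The RNA switches were made by on-chip transcription from Illumina sequencing clusters. SNAP-549-labelled MS2 coat protein was then added in twofold steps (0.7 or 1.5 nM to 3 µM; 0.8–1.5 h to 10–20 min per step) in 100 mM Tris-HCl pH 7.5, 80 mM KCl, 4 mM MgCl2, without or with constant ligand.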
# [1] = input ligand: theophylline 20 uM
# [2] = input ligand: tryptophan 2.4 mM
# [3] = input ligand: theophylline 2 mM
Sequence,apparent KD of MS2 coat protein (input ligand: arginine 13.2 mM) [nM],apparent KD of MS2 coat protein [1] [nM],apparent KD of MS2 coat protein [2] [nM],apparent KD of MS2 coat protein (input ligand: none) [nM],apparent KD of MS2 coat protein [3] [nM]
CUCUGAGUGAGCAAUCACUCAGAGGCGGAUACCAGCGAGGUCCAUCGCCCUUGGCAGCCGAACAUGAGGAUCACCCAUGUCGGUA [#1 Same State - Theophylline A Attempt #22 (HarryS)],9.29,13,11,,
UACAUGAGGAUCACCCAUGUGUAGAGGGAUACCAGUGACAGUAAGCGCCCUUGGCAGCCCGUGAACAAUGGGUGAGCUAAAUAGU [#18 Exclusion-TheophyllineA],28.7,75.5,57.4,37.9,133
AGUGUUAUAACUGAUACCAGACCUUUGCUUAUACAUGAGGAUCACCCAUGUAAAAUGGCGGUCCCUUGGCAGCAGAGAAUACGCA [#09 Same State - Theophylline B],52.2,57,60.1,,
GUUAUAGACGGAAGGAGCGCGACCACAUGAGGAUCACCCAUGUAUUGUGUUGGUAAUAGGUCGCAGGUAGGUCGCCGGUUAAUGA [#04 Same State - Arginine B],27.1,50.1,31,36.6,38
GGCUGCGAUGGCGGAAAUUAUUUACAUAGGCGAGGACCGGUACGGCCGCCACUCGAACGUACAUGAGGAUCACCCAUGUGAUAAU [theeternabot_sameState_MS2_Trp_A_1],29,59.9,,,70.8
AAGACGGUCGGAAGGAGCGGUACAUGAGGAUCACCCAUGUACUUCUGGGCAUCCGUAGUGUGCCAGGUAGGUCGCCGAUUGCGGG [XArg-B12],32.7,36.3,22.8,22.4,24.9
CGAAUAUAGACGGCCGCCACUCUACAAACAUGAGGAUCACCCAUGUUCACAUAGAGGAAACUCAUGAGGACCGGGUCAUAGGCUU [#20 Same State - Tryptophan B],23.5,32.5,,,27.4
UGUCAUGGAAACAUGACAGGUCUUACCGGUCGAGGACCGGUACGGCCGCCACUCGAUUGGUGGCACAUGAGGAUCACCCAUGUUA [SS Tryp A #16],21.8,47.3,,,34.3
GGACCAUGGAGCGAUACCAGCUUGAGUGUGCUGGCCAGGCACAUGAGGAUCACCCAUGUAAGCCCUUGGCAGCGCUCCAUGGUCC [#1 Exclusion - Theophylline B Attempt #26 (HarryS)],7.45,13.3,10.6,8.39,13.5
UAAAACAUGAGGAUCACCCAUGUAAAUGAUACCAGAGUGAUGAUCCUCCCUUGGCAGCAUAACGCUGAUUGAUUACAAUCAGCGA [Mat - Same State Theophlline A - Mod of Eli - D22],55.2,160,58.3,,
CUAUAUGGAAACAUAUAGAAGCGAAAGCAACGAGGACCGGUACGGCCGCCACUCGAAGAGUGGUGGACAUGAGGAUCACCCAUGU [Design 3],40.8,71.6,,,99.6
AGACAUGAGGAUCACCCAUGUAGUACGGAUACCAGAUCCAGAUGUAUCCCUUGGCAGCUGUGGUACAGCGUUACAUCGCUCGUAG [Exclusion - Theophylline A (Freestyle 21)],10.4,18.4,16.2,13.3,16.6
UCACGACGCAACGUGAAAUAAUAAACAGAAGGAGCGAGGAAAGCCUCAGGUAGGUCGCUGACAUGAGGAUCACCCAUGUAUUACA [Same State Arginine A GF5],27.1,41.2,32.2,31.5,35.1
ACGAUAGGACCUGAGGAACACCCAGGUGAUACCAGCCUGGAAACAGGCCCUUGGCAGCACCAAUACUCCAAUAACCUAUCGAAUA [TheoAX 12 #MicroSwitchBubble #AlternativeMS2],141,521,518,547,366
UAAACUACACAUGAGGAUCACCCAUGUGGCCGAGGACCGGUACGGCCGCCACUCGUGUGUUAAUAAAAGAACCGCAAAGUUCUUU [Raesonisso],74.2,410,,,678
UCGCUAUUGUCGGCCGCCACUACUGCAGGGAAACAAAUAUAACCACAUGAGGAUCACCCAUGUCUUAGGACCGGGACACCCAUCU [theeternabot_sameState_MS2_Trp_B_2],54.8,126,,,119
AAAAUCCUACCUGAGGAUCACCCAGGUGAAGGAGCGCCCGAAAGGGCAGGUAGGUCGCACCUGAGGAUCACCCUGGUACCUAAAA [ArgAX 27 #DoubleMs2 #OpenEnded #AlternativeMS2],86.2,85.8,63.1,61,104
UGAGUUCGCUGAUGGGCUACGUCAGGUGAUACCAGCCACUCCCGCGGCCCUUGGCAGCACAUGAGGAUCACCCAUGUAGAGCUUG [Lazaceonus],17.9,20.4,14.1,15.7,254
GGAUGAAACUGAAGGAGCGAGAACACAAGAAUGGGUCAAACAUGAGGAUCACCCAUGUAAUCUCAGGUAGGUCGCAGUAUCCCUU [Exclusion Arginine B GF 10],44,50,36.6,34.3,53.3
UAAUGCAUGACGGCCGCCACUAGAACAUGAGGAUCACCCAUGUACGGCGGCCGUCAUGGGUGGACUAGGACCGGGUCAUGCAUAU [(Trp1)-(Ms2)-(T)'-(M)'-(Trp2)_Design5],8.2,11.6,,,10.5
UUAUAAGUACCGGUCCUCAGAUCCUCAUGACGAGGACCGGUACGGCCGCCACUCGAAACAUGAGGAUCACCCAUGUAAUAAUACU [Brourdmod08],21,34.5,,,33.1
UUUUUCGCGGGUGAUACCAGCAGAGUUGUACUGGUCUGGUACAUGAGGAUCACCCAUGUUUGCCCUUGGCAGCGCUCGGGAGAAG [#23 Exclusion-TheophyllineB],29.3,32.1,24.1,19.8,44.4
GUAAGAGUAGGAAGGAGCGCUUUACAUGAGGAUCACCCAUGUGUGCCCUCAAUUUCGGUAAAGCAGGUAGGUCGCCUAAACUUGC [Tiqurabi],31.2,175,57,34.5,67.5
AGGGAAUGAAUAGAAUGAGAUGACACAGAAGGAGCGCCGAUUAAGGCAGGUAGGUCGCUGACAACAUGAGGAUCACCCAUGUUAA [#11 Same State - Arginine A],8.73,14.1,20.6,17,17.5
GAGAGAGGAGUGCGGCGUGUUCCGCUCCGUCGAGGACCGGUACGGCCGCCACUCGACAUGAGGAUCACCCAUGUCCUCUCUCGCG [#1 Exclusion - Tryptophan A Attempt #4 (HarryS)],16.8,102,,,42.1
GGUGAUCCGUGCUGCCGGAUCAUCGGUGAUACCAGCAUCGAAAGAUGCCCUUGGCAGCACCAACAUGAGGAUCACCCAUGUAAUA [(M)'-(T)'-(M)''-(T1)-(T2)-(M1)-(M2)_Design5],46,231,163,,
AUACAUGAGGAUCACCCAUGUCAUUCAGAAGGAGCGUCAUUUUAGACAGGUAGGUCGCUGAUAUUAUUCUUAUACUUUAUGUUUA [JR_ExcArginiA_Sub022],21,26,20.2,17.7,19.5
AUUGUGAAGUCGGCCGCCACUGGUUAGUUUAACCUCAUGUAACAUGAGGAUCACCCAUGUAAUGACAGGACCGGGACAAUAGUAA [JR_ExcTryptoB_Sub015],103,126,,,194
